The series addresses EgMYB2 (R2R3 MYB factor) (UniProt Q70KC5 1-321). Description: EMSA; EMSA: 25 mM Tris-HCl pH 8, 250 mM NaCl, 10% glycerol, 7 mM beta-mercaptoethanol, 2 ug poly(dIdC), 25 ul, 30 min, room temperature; 0.125 ug EgMYB2; 4.8% PAGE in 0.5x TBE, 2.5% glycerol. Conditions: protein: recombinant; tags: GST (N-terminal, pGEX-5X-1); label: 32P; blunt. A general note: In EMSA bound probe runs differently from free probe, usually more slowly.

Chain of EgMYB2 (R2R3 MYB factor) (Q70KC5 entry or part of it): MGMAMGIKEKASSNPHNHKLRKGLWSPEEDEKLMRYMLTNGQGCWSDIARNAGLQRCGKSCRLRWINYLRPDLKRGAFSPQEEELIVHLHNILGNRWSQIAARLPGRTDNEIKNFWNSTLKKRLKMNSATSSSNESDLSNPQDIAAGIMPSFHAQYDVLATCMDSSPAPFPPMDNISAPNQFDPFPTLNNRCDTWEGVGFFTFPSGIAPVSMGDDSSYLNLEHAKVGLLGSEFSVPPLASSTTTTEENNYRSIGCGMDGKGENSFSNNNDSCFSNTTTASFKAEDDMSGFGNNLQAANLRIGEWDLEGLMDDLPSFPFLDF

B1: EgCAD2 [-203/-129] mutated MYBa (dsDNA)
DNA 1: TGGGAATGGCTAAAAAGCAAGTCTTGACCCTTAACCCACCCCACTGGTTCAGTCGACGCACCTCTGGTTAGGTATTGCTTGCTGAG
DNA 2: CTCAGCAAGCAATACCTAACCAGAGGTGCGTCGACTGAACCAGTGGGGTGGGTTAAGGGTCAAGACTTGCTTTTTAGCCATTCCCA
For the molecule B1, the binding result was “no binding”.

B2: EgCAD2 [-203/-129] mutated MYBa + MYBb (dsDNA)
DNA 1: TGGGAATGGCTAAAAAGCAAGTCTTGACCCTTAACCCACCCCACTGGTTCAGTCGACGCACCTCTGAGATCTTATTGCTTGCTGAG
DNA 2: CTCAGCAAGCAATAAGATCTCAGAGGTGCGTCGACTGAACCAGTGGGGTGGGTTAAGGGTCAAGACTTGCTTTTTAGCCATTCCCA
With B2, the binding result is listed as “no binding”.

B3: EgCAD2 [-203/-129] mutated MYBb (dsDNA)
DNA 1: TGGGAATGGCTAAAAAGCAAGTCTTGACCCTTAACCCACCCCACTGGTTCACCTACCGCACCTCTGAGATCTTATTGCTTGCTGAG
DNA 2: CTCAGCAAGCAATAAGATCTCAGAGGTGCGGTAGGTGAACCAGTGGGGTGGGTTAAGGGTCAAGACTTGCTTTTTAGCCATTCCCA
Regarding B3, the binding result is “no binding”.

B4: EgCCR [-119/-70] mutated MYB (dsDNA)
DNA 1: CCTTATAGGGGAGCGGGTCATTTCATGCGGTTCTAGAGTCTTGGTAAACATTGTC
DNA 2: GACAATGTTTACCAAGACTCTAGAACCGCATGAAATGACCCGCTCCCCTATAAGG
Consider B4, for which the binding result is “no binding”.

The values above are taken from PMC3017776, “Coordinated transcriptional regulation of two key genes in the lignin branch pathway - CAD and CCR - is mediated through MYB- binding sites”.
